Experimental data taken from patent publication US20240262869A1.
Read-outs that look alike come from different tables or passages of the source.

How the values were obtained:
[1] = biological target: neutralizing antibody CR3022
[2] = biological target: neutralizing antibody CR3022; remark: listed apart in the source
[3] = biological target: neutralizing antibody CR3022; remark: listed apart in the source

## mInCV02R (SARS CoV-2 RBD N-1) having EIS at the N-terminal (from UniProt P0DTC2 332-532) (ligand)
[1]
  Kd: 16.5 nM
[2]
  Kd: < 1 nM
[3]
  Kd: 15.9 nM
